From patent publication US20160031996A1 (CSL, published 2016)

T1: human IL-3Rα E51Q/S59A double mutant, full length (human, UniProt P26951 19-378)
T1 chain: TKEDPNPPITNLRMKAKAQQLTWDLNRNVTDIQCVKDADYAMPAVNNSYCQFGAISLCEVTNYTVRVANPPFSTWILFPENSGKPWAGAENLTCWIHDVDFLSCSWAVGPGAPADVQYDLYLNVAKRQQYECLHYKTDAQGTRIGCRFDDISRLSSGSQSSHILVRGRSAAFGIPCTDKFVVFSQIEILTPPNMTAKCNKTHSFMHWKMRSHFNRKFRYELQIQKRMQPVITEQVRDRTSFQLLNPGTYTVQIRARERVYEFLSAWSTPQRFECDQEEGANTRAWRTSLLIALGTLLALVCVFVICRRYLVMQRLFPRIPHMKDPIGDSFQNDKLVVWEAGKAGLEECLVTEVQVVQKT

T2: human IL-3Rα E51Q/S59A/P88T triple mutant, full length (human, UniProt P26951 19-378)
T2 chain: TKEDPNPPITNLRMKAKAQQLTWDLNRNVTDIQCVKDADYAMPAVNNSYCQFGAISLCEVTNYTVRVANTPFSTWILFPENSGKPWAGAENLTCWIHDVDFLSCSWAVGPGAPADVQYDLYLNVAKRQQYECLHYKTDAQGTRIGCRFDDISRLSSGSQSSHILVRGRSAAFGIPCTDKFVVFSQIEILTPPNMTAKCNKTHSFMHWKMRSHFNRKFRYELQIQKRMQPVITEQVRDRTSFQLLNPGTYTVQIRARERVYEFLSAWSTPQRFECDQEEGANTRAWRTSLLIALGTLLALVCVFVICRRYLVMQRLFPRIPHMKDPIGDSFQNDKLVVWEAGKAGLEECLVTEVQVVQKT

T3: human IL-3Rα E51Q/P88T double mutant, full length (human, UniProt P26951 19-378)
T3 chain: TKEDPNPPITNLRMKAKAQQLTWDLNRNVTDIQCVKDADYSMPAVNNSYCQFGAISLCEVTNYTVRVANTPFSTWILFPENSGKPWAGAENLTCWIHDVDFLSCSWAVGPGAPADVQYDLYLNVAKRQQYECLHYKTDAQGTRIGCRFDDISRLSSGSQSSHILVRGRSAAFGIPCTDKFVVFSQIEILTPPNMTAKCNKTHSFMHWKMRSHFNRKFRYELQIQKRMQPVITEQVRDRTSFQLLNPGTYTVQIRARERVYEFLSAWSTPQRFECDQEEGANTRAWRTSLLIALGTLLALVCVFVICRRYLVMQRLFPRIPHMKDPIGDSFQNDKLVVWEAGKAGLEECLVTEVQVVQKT

T4: human IL-3Rα S59A/P88T double mutant, full length (human, UniProt P26951 19-378)
T4 chain: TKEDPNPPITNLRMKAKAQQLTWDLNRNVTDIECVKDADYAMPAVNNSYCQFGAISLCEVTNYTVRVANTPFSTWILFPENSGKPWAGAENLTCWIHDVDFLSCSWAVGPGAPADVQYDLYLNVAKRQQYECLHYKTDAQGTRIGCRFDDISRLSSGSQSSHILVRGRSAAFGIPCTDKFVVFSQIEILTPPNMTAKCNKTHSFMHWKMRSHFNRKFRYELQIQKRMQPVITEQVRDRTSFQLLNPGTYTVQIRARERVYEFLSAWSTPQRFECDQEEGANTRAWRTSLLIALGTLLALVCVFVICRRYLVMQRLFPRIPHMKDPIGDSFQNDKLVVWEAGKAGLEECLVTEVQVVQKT

T5: chimera of human IL-3Rα residues 101-377 with GM-CSFRα domains (human, UniProt P15509 23-114)
T5 construct: on 293F cells
T5 sequence: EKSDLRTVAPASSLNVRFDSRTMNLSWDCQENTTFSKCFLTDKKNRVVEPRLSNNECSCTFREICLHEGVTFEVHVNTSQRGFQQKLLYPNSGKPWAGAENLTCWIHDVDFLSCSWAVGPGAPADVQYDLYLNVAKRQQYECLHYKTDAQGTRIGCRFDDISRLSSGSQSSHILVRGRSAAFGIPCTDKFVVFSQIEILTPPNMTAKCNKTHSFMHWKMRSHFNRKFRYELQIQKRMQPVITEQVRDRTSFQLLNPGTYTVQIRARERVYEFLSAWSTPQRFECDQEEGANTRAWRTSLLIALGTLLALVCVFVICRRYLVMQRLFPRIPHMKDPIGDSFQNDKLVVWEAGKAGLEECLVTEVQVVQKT

T6: wild-type human GM-CSFRα (human, UniProt P15509 23-400)
T6 construct: whole, on cells; negative control, on 293F cells; also called GM-CSFRa
T6 sequence (looked up): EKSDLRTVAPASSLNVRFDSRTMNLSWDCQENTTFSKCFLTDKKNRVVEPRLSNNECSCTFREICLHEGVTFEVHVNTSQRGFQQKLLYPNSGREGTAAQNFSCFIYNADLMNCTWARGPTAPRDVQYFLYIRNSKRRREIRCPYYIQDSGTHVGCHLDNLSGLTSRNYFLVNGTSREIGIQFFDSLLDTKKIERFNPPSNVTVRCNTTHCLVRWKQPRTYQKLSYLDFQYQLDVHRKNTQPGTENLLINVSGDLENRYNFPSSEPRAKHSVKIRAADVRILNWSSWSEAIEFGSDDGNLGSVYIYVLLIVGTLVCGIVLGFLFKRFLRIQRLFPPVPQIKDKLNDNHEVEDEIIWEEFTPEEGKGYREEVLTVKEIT


Assays:
[1] = molecular target: T1, human IL-3Rα E51Q/S59A double mutant, …; assay: flow cytometry, MFI normalised to WT
Method: (§1) Median fluorescence intensity (MFI) of each antibody was determined for WT IL-3Rα and for each IL-3Rα mutant. The MFI of WT IL-3Rα staining for each antibody was set as 100% then the MFI of each mutant was normalized to a percent of WT staining.

[2] = molecular target: T2, human IL-3Rα E51Q/S59A/P88T triple …; assay: flow cytometry, MFI normalised to WT
Method: as §1

[3] = molecular target: T3, human IL-3Rα E51Q/P88T double mutant, …; assay: flow cytometry, MFI normalised to WT
Method: as §1

[4] = molecular target: T4, human IL-3Rα S59A/P88T double mutant, …; assay: flow cytometry, MFI normalised to WT
Method: as §1

[5] = molecular target: T5, chimera of human IL-3Rα residues …; assay: flow cytometry, transfected 293F cells
Description: Expression constructs were generated of frill length human IL-3Rα or of proteins comprising hIL-3Rα domains with various GM-CSFRα domains as depicted in FIG. 1A. […] Results are tabulated in Table 1 with positive staining (+) and negative staining (−) indicated.

wild-type human GM-CSFRα = molecular target: T6, wild-type human GM-CSFRα; assay: Western blot, whole cell extracts

MFI as percent of WT staining [1]	MFI as percent of WT staining [2]	MFI as percent of WT staining [3]	MFI as percent of WT staining [4]	binding result [5]	binding result (wild-type human GM-CSFRα)	Binder
2.4 % of WT MFI	2.9 % of WT MFI	2.5 % of WT MFI	5 % of WT MFI	–	–	antibody CSL362 (antibody, V domains shown) VH: EVQLVQSGAEVKKPGESLKISCKGSGYSFTDYYMKWARQMPGKGLEWMGDIIPSNGATFYNQKFKGQVTISADKSISTTYLQWSSLKASDTAMYYCARSHLLRASWFAYWGQGTMVTVSS VL: DIVMTQSPDSLAVSLGERATINCESSQSLLNSGNQKNYLTWYQQKPGQPPKPLIYWASTRESGVPDRFSGSGSGTDFTLTISSLQAEDVAVYYCQNDYSYPYTFGQGTKLEIKR
1.4 % of WT MFI	1 % of WT MFI	1.4 % of WT MFI	3 % of WT MFI	no binding	no binding	monoclonal antibody 7G3 (antibody, V domains shown, mouse monoclonal antibody (hybridoma ATCC HB-12009)) VH: EVQLQQSGPELVKPGASVKMSCKASGYTFTDYYMKWVKQSHGKSLEWIGDIIPSNGATFYNQKFKGKATLTVDRSSSTAYMHLNSLTSEDSAVYYCTRSHLLRASWFAYWGQGTLVTVSA VL: DFVMTQSPSSLTVTAGEKVTMSCKSSQSLLNSGNQKNYLTWYLQKPGQPPKLLIYWASTRESGVPDRFTGSGSGTDFTLTISSVQAEDLAVYYCQNDYSYPYTFGGGTKLEIKR
